target: canine FcRn complex (FcRn-alpha subunit and beta-microglobulin), His-tagged, biotin labeled (canine); assay: SPR (Biacore), biotin-FcRn captured on SA surface, IgG flowed over, pH 6, 15 C

Kd | Binder
14.4 nM | canine IgGB (65) mAb with mutation D312W (antibody, part only; not given: Variable domains, not shown: another chain or arm of the molecule) constant: ASTTAPSVFPLAPSCGSTSGSTVALACLVSGYFPEPVTVSWNSGSLTSGVHTFPSVLQSSGLYSLSSMVTVPSSRWPSETFTCNVAHPASKTKVDKPVPKRENGRVPRPPDCPKCPAPEMLGGPSVFIFPPKPKDTLLIARTPEVTCVVVDLDPEDPEVQISWFVDGKQMQTAKTQPREEQFNGTYRVVSVLPIGHQWWLKGKQFTCKVNNKALPSPIERTISKARGQAHQPSVYVLPPSREELSKNTVSLTCLIKDFFPPDIDVEWQSNGQQEPESKYRTTPPQLDEDGSYFLYSKLSVDKSRWQRGDTFICAVMHEALHNHYTQESLSHSPGK
5.33 nM | canine IgGB (65) mAb with mutation A426N (antibody, part only; not given: Variable domains, not shown: another chain or arm of the molecule) constant: ASTTAPSVFPLAPSCGSTSGSTVALACLVSGYFPEPVTVSWNSGSLTSGVHTFPSVLQSSGLYSLSSMVTVPSSRWPSETFTCNVAHPASKTKVDKPVPKRENGRVPRPPDCPKCPAPEMLGGPSVFIFPPKPKDTLLIARTPEVTCVVVDLDPEDPEVQISWFVDGKQMQTAKTQPREEQFNGTYRVVSVLPIGHQDWLKGKQFTCKVNNKALPSPIERTISKARGQAHQPSVYVLPPSREELSKNTVSLTCLIKDFFPPDIDVEWQSNGQQEPESKYRTTPPQLDEDGSYFLYSKLSVDKSRWQRGDTFICNVMHEALHNHYTQESLSHSPGK
8.86 nM | canine IgGB (65) mAb with mutation A426C (antibody, part only; not given: Variable domains, not shown: another chain or arm of the molecule) constant: ASTTAPSVFPLAPSCGSTSGSTVALACLVSGYFPEPVTVSWNSGSLTSGVHTFPSVLQSSGLYSLSSMVTVPSSRWPSETFTCNVAHPASKTKVDKPVPKRENGRVPRPPDCPKCPAPEMLGGPSVFIFPPKPKDTLLIARTPEVTCVVVDLDPEDPEVQISWFVDGKQMQTAKTQPREEQFNGTYRVVSVLPIGHQDWLKGKQFTCKVNNKALPSPIERTISKARGQAHQPSVYVLPPSREELSKNTVSLTCLIKDFFPPDIDVEWQSNGQQEPESKYRTTPPQLDEDGSYFLYSKLSVDKSRWQRGDTFICCVMHEALHNHYTQESLSHSPGK
25.1 nM | canine IgGB (65) mAb with mutation D312Y (antibody, part only; not given: variable domains of unnamed mAb, not shown: another chain or arm of the molecule) constant: ASTTAPSVFPLAPSCGSTSGSTVALACLVSGYFPEPVTVSWNSGSLTSGVHTFPSVLQSSGLYSLSSMVTVPSSRWPSETFTCNVAHPASKTKVDKPVPKRENGRVPRPPDCPKCPAPEMLGGPSVFIFPPKPKDTLLIARTPEVTCVVVDLDPEDPEVQISWFVDGKQMQTAKTQPREEQFNGTYRVVSVLPIGHQYWLKGKQFTCKVNNKALPSPIERTISKARGQAHQPSVYVLPPSREELSKNTVSLTCLIKDFFPPDIDVEWQSNGQQEPESKYRTTPPQLDEDGSYFLYSKLSVDKSRWQRGDTFICAVMHEALHNHYTQESLSHSPGK
8.84 nM | canine IgGB (65) mAb with mutation A426M (antibody, part only; not given: Variable domains, not shown: another chain or arm of the molecule) constant: ASTTAPSVFPLAPSCGSTSGSTVALACLVSGYFPEPVTVSWNSGSLTSGVHTFPSVLQSSGLYSLSSMVTVPSSRWPSETFTCNVAHPASKTKVDKPVPKRENGRVPRPPDCPKCPAPEMLGGPSVFIFPPKPKDTLLIARTPEVTCVVVDLDPEDPEVQISWFVDGKQMQTAKTQPREEQFNGTYRVVSVLPIGHQDWLKGKQFTCKVNNKALPSPIERTISKARGQAHQPSVYVLPPSREELSKNTVSLTCLIKDFFPPDIDVEWQSNGQQEPESKYRTTPPQLDEDGSYFLYSKLSVDKSRWQRGDTFICMVMHEALHNHYTQESLSHSPGK
7.36 nM | canine IgGB (65) mAb with mutation A426G (antibody, part only; not given: variable domains of unnamed mAb, not shown: another chain or arm of the molecule) constant: ASTTAPSVFPLAPSCGSTSGSTVALACLVSGYFPEPVTVSWNSGSLTSGVHTFPSVLQSSGLYSLSSMVTVPSSRWPSETFTCNVAHPASKTKVDKPVPKRENGRVPRPPDCPKCPAPEMLGGPSVFIFPPKPKDTLLIARTPEVTCVVVDLDPEDPEVQISWFVDGKQMQTAKTQPREEQFNGTYRVVSVLPIGHQDWLKGKQFTCKVNNKALPSPIERTISKARGQAHQPSVYVLPPSREELSKNTVSLTCLIKDFFPPDIDVEWQSNGQQEPESKYRTTPPQLDEDGSYFLYSKLSVDKSRWQRGDTFICGVMHEALHNHYTQESLSHSPGK
3.81 nM | canine IgGB (65) mAb with mutation A426K (antibody, part only; not given: Variable domains, not shown: another chain or arm of the molecule) constant: ASTTAPSVFPLAPSCGSTSGSTVALACLVSGYFPEPVTVSWNSGSLTSGVHTFPSVLQSSGLYSLSSMVTVPSSRWPSETFTCNVAHPASKTKVDKPVPKRENGRVPRPPDCPKCPAPEMLGGPSVFIFPPKPKDTLLIARTPEVTCVVVDLDPEDPEVQISWFVDGKQMQTAKTQPREEQFNGTYRVVSVLPIGHQDWLKGKQFTCKVNNKALPSPIERTISKARGQAHQPSVYVLPPSREELSKNTVSLTCLIKDFFPPDIDVEWQSNGQQEPESKYRTTPPQLDEDGSYFLYSKLSVDKSRWQRGDTFICKVMHEALHNHYTQESLSHSPGK

Second part, the binder before the results:

Binder | Kd
canine IgGB (65) mAb with mutation A426D (antibody, part only; not given: Variable domains, not shown: another chain or arm of the molecule) constant: ASTTAPSVFPLAPSCGSTSGSTVALACLVSGYFPEPVTVSWNSGSLTSGVHTFPSVLQSSGLYSLSSMVTVPSSRWPSETFTCNVAHPASKTKVDKPVPKRENGRVPRPPDCPKCPAPEMLGGPSVFIFPPKPKDTLLIARTPEVTCVVVDLDPEDPEVQISWFVDGKQMQTAKTQPREEQFNGTYRVVSVLPIGHQDWLKGKQFTCKVNNKALPSPIERTISKARGQAHQPSVYVLPPSREELSKNTVSLTCLIKDFFPPDIDVEWQSNGQQEPESKYRTTPPQLDEDGSYFLYSKLSVDKSRWQRGDTFICDVMHEALHNHYTQESLSHSPGK | 14.9 nM
canine IgGB (65) mAb with mutation A426E (antibody, part only; not given: Variable domains, not shown: another chain or arm of the molecule) constant: ASTTAPSVFPLAPSCGSTSGSTVALACLVSGYFPEPVTVSWNSGSLTSGVHTFPSVLQSSGLYSLSSMVTVPSSRWPSETFTCNVAHPASKTKVDKPVPKRENGRVPRPPDCPKCPAPEMLGGPSVFIFPPKPKDTLLIARTPEVTCVVVDLDPEDPEVQISWFVDGKQMQTAKTQPREEQFNGTYRVVSVLPIGHQDWLKGKQFTCKVNNKALPSPIERTISKARGQAHQPSVYVLPPSREELSKNTVSLTCLIKDFFPPDIDVEWQSNGQQEPESKYRTTPPQLDEDGSYFLYSKLSVDKSRWQRGDTFICEVMHEALHNHYTQESLSHSPGK | 4.77 nM
canine IgGB (65) mAb with mutation T286G (antibody, part only; not given: Variable domains, not shown: another chain or arm of the molecule) constant: ASTTAPSVFPLAPSCGSTSGSTVALACLVSGYFPEPVTVSWNSGSLTSGVHTFPSVLQSSGLYSLSSMVTVPSSRWPSETFTCNVAHPASKTKVDKPVPKRENGRVPRPPDCPKCPAPEMLGGPSVFIFPPKPKDTLLIARTPEVTCVVVDLDPEDPEVQISWFVDGKQMQGAKTQPREEQFNGTYRVVSVLPIGHQDWLKGKQFTCKVNNKALPSPIERTISKARGQAHQPSVYVLPPSREELSKNTVSLTCLIKDFFPPDIDVEWQSNGQQEPESKYRTTPPQLDEDGSYFLYSKLSVDKSRWQRGDTFICAVMHEALHNHYTQESLSHSPGK | 6.48 nM
canine IgGB (65) mAb with mutation A426I (antibody, part only; not given: Variable domains, not shown: another chain or arm of the molecule) constant: ASTTAPSVFPLAPSCGSTSGSTVALACLVSGYFPEPVTVSWNSGSLTSGVHTFPSVLQSSGLYSLSSMVTVPSSRWPSETFTCNVAHPASKTKVDKPVPKRENGRVPRPPDCPKCPAPEMLGGPSVFIFPPKPKDTLLIARTPEVTCVVVDLDPEDPEVQISWFVDGKQMQTAKTQPREEQFNGTYRVVSVLPIGHQDWLKGKQFTCKVNNKALPSPIERTISKARGQAHQPSVYVLPPSREELSKNTVSLTCLIKDFFPPDIDVEWQSNGQQEPESKYRTTPPQLDEDGSYFLYSKLSVDKSRWQRGDTFICIVMHEALHNHYTQESLSHSPGK | 8.54 nM
canine IgGB (65) mAb with mutation A426L (antibody, part only; not given: variable domains of unnamed mAb, not shown: another chain or arm of the molecule) constant: ASTTAPSVFPLAPSCGSTSGSTVALACLVSGYFPEPVTVSWNSGSLTSGVHTFPSVLQSSGLYSLSSMVTVPSSRWPSETFTCNVAHPASKTKVDKPVPKRENGRVPRPPDCPKCPAPEMLGGPSVFIFPPKPKDTLLIARTPEVTCVVVDLDPEDPEVQISWFVDGKQMQTAKTQPREEQFNGTYRVVSVLPIGHQDWLKGKQFTCKVNNKALPSPIERTISKARGQAHQPSVYVLPPSREELSKNTVSLTCLIKDFFPPDIDVEWQSNGQQEPESKYRTTPPQLDEDGSYFLYSKLSVDKSRWQRGDTFICLVMHEALHNHYTQESLSHSPGK | 5.17 nM

Source: patent publication US20260139055A1
